Test system: iPSCs derived mammary gland organoids
Assay: Flow cytometry quantification of mammary gland progenitor markers in 3D iPSC differentiation (42-day and shortened 31-day protocols)
Assay type: cell-based, human
Conditions: 20 ng/ml BMP4, 1 μM RA, single or combination, 42 days and 31 days protocols, compared to control condition
Source text: Scheme summarizing different procedures for the generation of mammary gland progenitors in 42 days (a), using bone morphogenetic protein 4 (BMP4) (b), retinoic acid (RA) (c), combinations of BMP4 and RA (d) and their combination in shortened time-course (31 days) (e). The red boxes indicate the period of addition of BMP4 and/or RA.

B1: BMP4: bone morphogenetic protein 4, growth factor added to the culture medium (protein, UniProt P12644 293-408, looked up)
Bone morphogenetic protein 4: SPKHHSQRARKKNKNCRRHSLYVDFSDVGWNDWIVAPPGYQAFYCHGDCPFPLADHLNSTNHAIVQTLVNSVNSSIPKACCVPTELSAISMLYLDEYDKVVLKNYQEMVVEGCGCR
  expression of mammary gland progenitor markers (EpCAM, CD49f, MUC1, GATA3): can induce the expression of mammary gland progenitor markers

— patent publication US20250297216A1, “METHOD FOR PRODUCING MILK LIKE PRODUCTS” (SOCIETE DES PRODUITS NESTLE S.A., priority 2021, published 2025)
